According to the supplement of paper PMC11316812:
± gives the standard deviation of the averaged measurements.

Assays:
[1] = system: MCF7; assay: percentage of EdU-negative (G0-arrested) nuclei per well, 72 h; higher = more G0 arrest; conditions: reference: sequence is the full UniProt precursor, the tested protein was the secreted form or ectodomain
[2] = system: hTERT-HMEC; assay: as above; conditions: reference: sequence is the full UniProt precursor, the tested protein was the secreted form or ectodomain
[3] = protein concentration 0.0225 µM
[4] = protein concentration 0.03125 µM
[5] = protein concentration 0.3125 µM
[6] = protein concentration 0.0211429 µM
[7] = protein concentration 0.211429 µM
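Also: secreted proteins added to cultured cells, EdU pulse at the end, nuclei found by Hoechst imaging, EdU status from nuclear versus surrounding ring intensity ratio, PBS as neutral control.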

Sequence	percentage of EdU-negative [1, 3] [%]	percentage of EdU-negative ([1]; protein concentration 0.225 µM) [%]	percentage of EdU-negative [2, 3] [%]	percentage of EdU-negative ([2]; protein concentration 0.225 µM) [%]	also measured
MLVRRGARAGPRMPRGWTALCLLSLLPSGFMSLDNNGTATPELPTQGTFSNVSTNVSYQETTTPSTLGSTSLHPVSQHGNEATTNITETTVKFTSTSVITSVYGNTNSSVQSQTSVISTVFTTPANVSTPETTLKPSLSPGNVSDLSTTSTSLATSPTKPYTSSSPILSDIKAEIKCSGIREVKLTQGICLEQNKTSSCAEFKKDRGEGLARVLCGEEQADADAGAQVCSLLLAQSEVRPQCLLLVLANRTEISSKLQLMKKHQSDLKKLGILDFTEQDVASHQSYSQKTLIALVTSGALLAVLGITGYFLMNRRSWSPTGERLGEDPYYTENGGGQGYSSGPGTSPEAQGKASVNRGAQENGTGQATSRNGHSARQHVVADTEL	26.6 ± 1.4	27.23 ± 0.19	5.14 ± 0.39	5.89 ± 0.59	
MLWLFQSLLFVFCFGPGNVVSQSSLTPLMVNGILGESVTLPLEFPAGEKVNFITWLFNETSLAFIVPHETKSPEIHVTNPKQGKRLNFTQSYSLQLSNLKMEDTGSYRAQISTKTSAKLSSYTLRILRQLRNIQVTNHSQLFQNMTCELHLTCSVEDADDNVSFRWEALGNTLSSQPNLTVSWDPRISSEQDYTCIAENAVSNLSFSVSAQKLCEDVKIQYTDTKMILFMVSGICIVFGFIILLLLVLRKRRDSLSLSTQRTQGPAESARNLEYVSVSPTNNTVYASVTHSNRETEIWTPRENDTITIYSTINHSKESKPTFSRATALDNVV [Q96DU3]	24.69 ± 0.12	25 ± 1.3	4.5 ± 0.13	5.94 ± 1.1	
MLWRQLIYWQLLALFFLPFCLCQDEYMESPQTGGLPPDCSKCCHGDYSFRGYQGPPGPPGPPGIPGNHGNNGNNGATGHEGAKGEKGDKGDLGPRGERGQHGPKGEKGYPGIPPELQIAFMASLATHFSNQNSGIIFSSVETNIGNFFDVMTGRFGAPVSGVYFFTFSMMKHEDVEEVYVYLMHNGNTVFSMYSYEMKGKSDTSSNHAVLKLAKGDEVWLRMGNGALHGDHQRFSTFAGFLLFETK [Q9BXJ4]	24.8 ± 1.7	26.38 ± 0.15	5.75 ± 0.2	5.41 ± 0.19	
MMCGAPSATQPATAETQHIADQVRSQLEEKENKKFPVFKAVSFKSQVVAGTNYFIKVHVGDEDFVHLRVFQSLPHENKPLTLSNYQTNKAKHDELTYF					percentage of EdU-negative [1, 4]: 26 ± 3.3%; percentage of EdU-negative [1, 5]: 26.5 ± 2.9%; percentage of EdU-negative [2, 4]: 5.09 ± 0.59%; percentage of EdU-negative [2, 5]: 4.78 ± 0.35%
MMCPLWRLLIFLGLLALPLAPHKQPWPGLAQAHRDNKSTLARIIAQGLIKHNAESRIQNIHFGDRLNASAQVAPGLVGWLISGRKHQQQQESSINITNIQLDCGGIQISFHKEWFSANISLEFDLELRPSFDNNIVKMCAHMSIVVEFWLEKDEFGRRDLVIGKCDAEPSSVHVAILTEAIPPKMNQFLYNLKENLQKVLPHMVESQVCPLIGEILGQLDVKLLKSLIEQEAAHEPTHHETSQPSACQAGESPS [Q9BQP9]	25.2 ± 1.2	26.8 ± 0.78	4.7 ± 0.18	12.1 ± 1.2	
MMDIYVCLKRPSWMVDNKRMRTASNFQWLLSTFILLYLMNQVNSQKKGAPHDLKCVTNNLQVWNCSWKAPSGTGRGTDYEVCIENRSRSCYQLEKTSIKIPALSHGDYEITINSLHDFGSSTSKFTLNEQNVSLIPDTPEILNLSADFSTSTLYLKWNDRGSVFPHRSNVIWEIKVLRKESMELVKLVTHNTTLNGKDTLHHWSWASDMPLECAIHFVEIRCYIDNLHFSGLEEWSDWSPVKNISWIPDSQTKVFPQDKVILVGSDITFCCVSQEKVLSALIGHTNCPLIHLDGENVAIKIRNISVSASSGTNVVFTTEDNIFGTVIFAGYPPDTPQQLNCETHDLKEIICSWNPGRVTALVGPRATSYTLVESFSGKYVRLKRAEAPTNESYQLLFQMLPNQEIYNFTLNAHNPLGRSQSTILVNITEKVYPHTPTSFKVKDINSTAVKLSWHLPGNFAKINFLCEIEIKKSNSVQEQRNVTIKGVENSSYLVALDKLNPYTLYTFRIRCSTETFWKWSKWSNKKQHLTTEASPSKGPDTWREWSSDGKNLIIYWKPLPINEANGKILSYNVSCSSDEETQSLSEIPDPQHKAEIRLDKNDYIISVVAKNSVGSSPPSKIASMEIPNDDLKIEQVVGMGKGILLTWHYDPNMTCDYVIKWCNSSRSEPCLMDWRKVPSNSTETVIESDEFRPGIRYNFFLYGCRNQGYQLLRSMIGYIEELAPIVAPNFTVEDTSADSILVKWEDIPVEELRGFLRGYLFYFGKGERDTSKMRVLESGRSDIKVKNITDISQKTLRIADLQGKTSYHLVLRAYTDGGVGPEKSMYVVTKENSVGLIIAILIPVAVAVIVGVVTSILCYRKREWIKETFYPDIPNPENCKALQFQKSVCEGSSALKTLEMNPCTPNNVEVLETRSAFPKIEDTEIISPVAERPEDRSDAEPENHVVVSYCPPIIEEEIPNPAADEAGGTAQVIYIDVQSMYQPQAKPEEEQENDPVGGAGYKPQMHLPINSTVEDIAAEEDLDKTAGYRPQANVNTWNLVSPDSPRSIDSNSEIVSFGSPCSINSRQFLIPPKDEDSPKSNGGGWSFTNFFQNKPND					percentage of EdU-negative [1, 6]: 24.2 ± 2%; percentage of EdU-negative [1, 7]: 26.8 ± 0.8%; percentage of EdU-negative [2, 6]: 4.99 ± 0.47%; percentage of EdU-negative [2, 7]: 7.62 ± 0.7%
MMGLFPRTTGALAIFVVVILVHGELRIETKGQYDEEEMTMQQAKRRQKREWVKFAKPCREGEDNSKRNPIAKITSDYQATQKITYRISGVGIDQPPFGIFVVDKNTGDINITAIVDREETPSFLITCRALNAQGLDVEKPLILTVKILDINDNPPVFSQQIFMGEIEENSASNSLVMILNATDADEPNHLNSKIAFKIVSQEPAGTPMFLLSRNTGEVRTLTNSLDREQASSYRLVVSGADKDGEGLSTQCECNIKVKDVNDNFPMFRDSQYSARIEENILSSELLRFQVTDLDEEYTDNWLAVYFFTSGNEGNWFEIQTDPRTNEGILKVVKALDYEQLQSVKLSIAVKNKAEFHQSVISRYRVQSTPVTIQVINVREGIAFRPASKTFTVQKGISSKKLVDYILGTYQAIDEDTNKAASNVKYVMGRNDGGYLMIDSKTAEIKFVKNMNRDSTFIVNKTITAEVLAIDEYTGKTSTGTVYVRVPDFNDNCPTAVLEKDAVCSSSPSVVVSARTLNNRYTGPYTFALEDQPVKLPAVWSITTLNATSALLRAQEQIPPGVYHISLVLTDSQNNRCEMPRSLTLEVCQCDNRGICGTSYPTTSPGTRYGRPHSGRLGPAAIGLLLLGLLLLLLAPLLLLTCDCGAGSTGGVTGGFIPVPDGSEGTIHQWGIEGAHPEDKEITNICVPPVTANGADFMESSEVCTNTYARGTAVEGTSGMEMTTKLGAATESGGAAGFATGTVSGAASGFGAATGVGICSSGQSGTMRTRHSTGGTNKDYADGAISMNFLDSYFSQKAFACAEEDDGQEANDCLLIYDNEGADATGSPVGSVGCCSFIADDLDDSFLDSLGPKFKKLAEISLGVDGEGKEVQPPSKDSGYGIESCGHPIEVQQTGFVKCQTLSGSQGASALSTSGSVQPAVSIPDPLQHGNYLVTETYSASGSLVQPSTAGFDPLLTQNVIVTERVICPISSVPGNLAGPTQLRGSHTMLCTEDPCSRLI	27.7 ± 0.58	33.34 ± 0.16	4.88 ± 0.17	13.7 ± 2.7	
MMLHSALGLCLLLVTVSSNLAIAIKKEKRPPQTLSRGWGDDITWVQTYEEGLFYAQKSKKPLMVIHHLEDCQYSQALKKVFAQNEEIQEMAQNKFIMLNLMHETTDKNLSPDGQYVPRIMFVDPSLTVRADIAGRYSNRLYTYEPRDLPLLIENMKKALRLIQSEL [Q8TD06]	26.1 ± 2.8	24.6 ± 0.5	5.91 ± 1.9	6.43 ± 1.1	
